Data as given in the DeepSol protein solubility set.

assay: soluble on expression in E. coli; label from the status in PepcDB or PDB records

Sequence	soluble on expression in E. coli
MACHELSALRIAIGELLEKEAHDLLHEREELAPVLGQRPELKRLAEAKTLPALEEALREALLHLEERAAQEPEEPYWRGLLLAVEAMEGRLKALRAEAEALYQDLDALHGRLHRLFPRRR	soluble
LGSGTTEDVSDLPVEEQLRRLQEERTCKVCMDKEVSIVFIPCGHLVVCKDCAPSLRKCPICRSTIKGTVRTFLS	soluble
MTAGPQAHGHAPQTAGLAALEARLRQDLAWLELPAKPWTLPHALDGQPVLDVAIIGGGMAGLAAATALKHLGIGAVVFDRAPEGYEGPWATTARMETLRSPKQLTGPALGLPALTFRAWFEAQFGADAWETLDKIPRLQWMDYLRWYRRVLQLEVRNAHHVRTVQPRADGAVELTLDTPDAAGQRVLARRVVLATGRDGLGGPAVPAFAHRLPHRWWAHSSDAMDYGALAGKRVGVIGAGASAMDSAATALEAGAASVDLLIRRPDLPRINKGKGAGSPGLVHGHQHLPDAWKWRIRHYINAEQVPPPRGSTLRVSRHPNARFNLGCPVLGVDEHNGALHVTTPKGVFRLDFLIFSTGFRLDWAARPEFSALAPHVRLWRDRYTPRPGEEDAELSDSPDLGPAFELREKTPGQLPGLSRVHCFCYPASLTHGSVSGDIPAISEGARRLAQGIAGLLYQEDIEGHYAAMQAYAEPEIFGDEWTPAPPPQSEPAAAAASPAREAARLEHHHHHH	not soluble
MGSDKIHHHHHHMNPGIEKYEIRFDFDLKDFTYTSHERIHLAGDWKDIKLDAVRLSVDKVTCNGQPMRFETGQDTVTVKGSFHDKDVIDIDFHAKVSDTLMGLYLSRTKEGTMITTQFESNGARMAFPCVDHPAYKAVFAITVVIDKDYDAISNMPPKRIEVSERKIVEFQDTPKMSTYLLYIGVGKFKYATDKYRDIDLILVSLKDIKSKYPLEIARKSIEFYESYFGIPYALPKMHLISVPEFGAGAMENWGAITFREVALMATENSGSIMKQNAAITIAHEIAHQWFGDLVTMKWWNDLWLNESFATFMSYKTVDSFSKQWDVFADFIRSETGGALRSDSLKNTHPIEVDVKDPDEISQIFDEISYGKGASILRMIEDYAGYEEFRKGISKYLNDHRYGNAEGSDLWTAIEDVSGKPVKRVMEYWIKNPGYPVVSVVKSGNKFRLTQEQFFLDGTRGQGKWPIPLTVMTKSGKKAMLMEESAEIEDMVKVNVNSSGFYRVSYDGESFETVMKNYSKLSNLDRWGLISDLYAFLISGRVSVDDYLARIKGFFEDSDHLIVEEIASQLTGLYLLKPDSNRIRETAASYLSRQVVALGDKQKGEDDKISKIRGIVTQDLAMVDDHFASDLARKFSTLAEDPDLALAKSIAAAKAYGISELASAADKYTDDEIRVRIIAAMGWCSPSDLKSVFELIDKGTIRKQDMLYVFSNMPANPKGRDFFFSNIDRIVALMEHAFEGTGYTSRILETAIPYLGLARYEDVKKKAEQIRKPSYNVGINKGLETLEIVRKLYNKL	not soluble
MGSDKIHHHHHHMGSGSVIWRLLPPAQGDPTTELAAGAAMLAGLKETNCPAIRWYAAGSRPALVIGSGQKLSDVDHTALRQQGVTLHRRSSGGTAVLFVPGLLMQDIALPLDHPLYHPDVSESYRWLGDVWQATLAQFGIHTSLIDIAAARADRQTLDPLIARACFGGQSPYEVLVAGRKLVGFAQIRRREGVLFQVGLYTHWPGRQLATLLAMNEAERTIFGERLADRVTDLVTVCESPPDIHQIAAAFAMVLRQRYEVSITAADWTEAEREAMIAAQARFAPLRLEG	not soluble
MRPGLSAKRLVVKVGSAVLTGERGLDLEAMAEIARQVAALREEGREVVLVSSGAVAAGMRRLGLKERPKDMPKKQALAALGQPLLMAFWQEAFAPFGLPVAQVLLTAEDLSSRSRYLNAKATLRALLDLGAIPVINENDTVAFEEIRFGDNDQLSARVAALVEAGLLALLSDVDALYEEDPKKNPQARPIPEVESVEAVLAHAGEENPLGSGGMKSKLLAARIAGRVGIPTLLLPGKRPGVLLQALSGAPLGTYFHARRRYRGEKAWLFGLLRPKGELVLDRGAVRALKERGASLLPAGVKEVRGRFSRGEAVRLLSEEGEEVGVGLANYASEEIARIKGRRSAEIEAVLGYRYTEEVVHRDHLALKEEA	soluble
